Data on six molecules can be found in PMC5519978 (2017).

The chains are these.
T1: hBRM-B AT-BRD (AT-hook and bromodomain of human BRM, short isoform, residues 1358-1399 and 1418-1508) (human, UniProt P51531 1358-1399; P51531 1418-1508, 15N-labelled)
T1 chain: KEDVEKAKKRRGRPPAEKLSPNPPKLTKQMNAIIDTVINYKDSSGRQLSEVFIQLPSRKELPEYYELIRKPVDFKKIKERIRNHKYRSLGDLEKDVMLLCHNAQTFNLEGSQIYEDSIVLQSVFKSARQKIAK

T2: BRG1 AT-BRD (AT-hook and bromodomain of human BRG1, residues 1434-1569), wild type (human, UniProt P51532 1434-1569)
T2 chain: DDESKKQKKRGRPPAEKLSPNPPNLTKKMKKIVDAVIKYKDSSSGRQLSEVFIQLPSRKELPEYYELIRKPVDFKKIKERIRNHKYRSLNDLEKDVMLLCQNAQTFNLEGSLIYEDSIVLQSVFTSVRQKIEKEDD

T3: hBRM-A AT-BRD (AT-hook and bromodomain of human BRM, long isoform, residues 1358-1508) (human, UniProt P51531 1358-1508, 15N-labelled)
T3 chain: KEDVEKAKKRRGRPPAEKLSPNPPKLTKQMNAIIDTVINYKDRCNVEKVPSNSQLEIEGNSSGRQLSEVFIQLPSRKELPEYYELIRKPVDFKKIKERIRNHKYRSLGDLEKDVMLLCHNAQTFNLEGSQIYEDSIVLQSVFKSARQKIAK

T4: hBRM-A BRD (human BRM bromodomain, long splice isoform, residues 1379-1508) (human, UniProt P51531 1379-1508, 15N-labelled)
T4 chain: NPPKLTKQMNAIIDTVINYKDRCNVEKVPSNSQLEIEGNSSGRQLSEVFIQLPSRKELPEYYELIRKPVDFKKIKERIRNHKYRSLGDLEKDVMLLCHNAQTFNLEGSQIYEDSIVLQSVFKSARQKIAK

B1: hBRM-B BRD (human BRM bromodomain, short splice isoform, residues 1379-1399 and 1418-1508) (domain or fragment)
chain: NPPKLTKQMNAIIDTVINYKDSSGRQLSEVFIQLPSRKELPEYYELIRKPVDFKKIKERIRNHKYRSLGDLEKDVMLLCHNAQTFNLEGSQIYEDSIVLQSVFKSARQKIAK
modifications: 15N-labelled

For test [1], the target named is B1. The test is described as follows: NMR.
Test [2] addresses T1, hBRM-B AT-BRD (AT-hook and bromodomain …). The test is described as follows: NMR.
The target is the same in test [3]. Put plainly: NMR; Kd,obs, AT-BRD pre-bound to DNAI.
The target is the same in test [4]. The test is described as follows: NMR; pre-bound to DNAI.
Test [5] deals with T2, BRG1 AT-BRD (AT-hook and bromodomain of …). Put plainly: NMR.
In test [6] the target is T3, hBRM-A AT-BRD (AT-hook and bromodomain …). The test is described as follows: NMR.
Test [7] has as its target T4, hBRM-A BRD (human BRM bromodomain, long …). The test is described as follows: NMR.
The next test has as its target H3(23-34). Put plainly: NMR.

No end group written: not given here. Where only a bound is given, the exact number is not on record here.

On to AKRHRK(Ac)VLRDN [H4(15-25)K20ac histone peptide], for which the Kd in test [1] was 2.4 mM.
Turning to QTARKSTGGKAPRKQLATK [H3(5-23) histone peptide, unmodified], the Kd in test [1] was greater than 7 mM.
Turning to KSTGGK(Ac)APRKQ [H3(9-19)K14ac histone peptide], the Kd in test [2] was 0.76 mM; in test [3], 1.12 mM; in test [4], 1.12 mM; in test [5], 0.94 mM; in test [6], 0.81 mM; in test [7], 0.88 mM.
Molecule KQLATK(Ac)AARKS [H3(18-28)K23ac histone peptide] showed a Kd in test [1] of 3.5 mM.
Consider KAARK(Ac)SAPATGG [H3(23-34)K27ac histone peptide], for which the Kd was greater than 7 mM in test [1], greater than 3 mM in test [5] and greater than 35 mM in test [6].
Consider B1, for which the Kd with H3(23-34) was greater than 16 mM.
